From paper PMC8887132

Target: T1, YTHDC2 YTH domain WT (Mus musculus, UniProt B2RR83 1353-1436)
T1 sequence: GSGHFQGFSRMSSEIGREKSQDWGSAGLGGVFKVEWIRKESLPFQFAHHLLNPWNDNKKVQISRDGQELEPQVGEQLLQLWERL
Experiment: fluorescence anisotropy

B1: m6A-modified RNA probe (ssRNA)
RNA: CCGGACUGU
modifications: m6A at position 5
Kd: 4.1 ± 1.4 µM

B2: unmodified RNA probe (ssRNA)
RNA: CCGGACUGU
Kd: 54 ± 26 µM
